This is an account of results in the DeepSol protein solubility set.

This series is described as follows: soluble on expression in E. coli; label from the status in PepcDB or PDB records.
“MGSDKIHHHHHHMIVYNSGAALEKARVRVGLVGTGYAAKFRAEALLHDERSQLIAVVGHTAEKTEAFVREYQIKALSSWQELVEREDVDLVVICTVNRDHGAIARAALTNGKHVIIEYPLSLDVVEADELIALAKAQKKLLHVEHLELLGGLHQALKQNLAKIGEVFYARYSTINPQNPAPRKWTYNHELFGFPLIGALSRLHRLIDLFGTVFTVNCHQRYWEIEPEYYQTCFCTSELCFNSGLLAQVVYGKGESIWQSERKFEVHGEKGGLVFDGDTGIFIQPEETTPIEVGPRRGLFAKDTAMVLDHLFDGTPLYVTPEQSLYTLKVADAAQRAAQTGFTMFM”: the “soluble on expression in E. coli” value is given as “not soluble”.
For the sequence “MSLKALVLTGTKQFEMQDVTTPTVKDDEVLVNTAYAGICGTDRALYAGLPGSADAVPPIVLGHENSGIVAAIGRNVTNVKVGDRVTVDPNIYCGECEYCRTDRPELCDNLSAVGVTRDGGLEESFTAPASVVYPIPDSVSLKAAATVEPISCAVHGVKLLDLTPYQKALVIGDGFMGQLFVQLLQAYGVHQVDFAGIVDEKLAFNKEKFGVTNTYNTTRDSIPADYDVVIEAVGLPQTQEQAVEATKKGAQVLMFGVGKPNQTFSMNTYEVYQKQLKIQGAFINPYAFEDSIALLASGQLDVESLISHEVSLEQVEDVLNGKVEHVSKAVVKVSEGHHHHHH”, the “soluble on expression in E. coli” value is “soluble”.
The result for “MRPILLPDPPSLSTGVPDIFEQGGSHNVVRRAVVIGNGFPGSENQCIGLVRALGLSDNHLLYVFSLLGLSLSRSGNFILFSTSLECMNVQRRRNYLNFYGNNELRIESLVEHDAGAITEFRLQGTLRVTRPKGGLNEWLHWLPVGFHKKLDFILRHIYLYSRLMLGSKQSKYISSVPSENGGNVGLASILEADVKGIVNLARQTYEKDGPLIVIACGRDTISIASSIRRLASENVFVVQIQHPRSHLNRFDMVITPRHDYYPLTLEAQEQVPRFMRSWITPREPPQDHVVLTTGALHQIDYASLRKAASAWHDEFAALPKPLVVVNIGWPRSNCRYGADLAKQLTDSLLNVLATCGSVRITLSYKTPAKVSRVIFKELGDNPKVYIWNGQEPNPYMGHLAWGDAFVVTADSVSLISEACSTGKPVYVVGADHCKWKIAEFQKSLRERGVVRSFTGFEDMSESWSYPPLNDTAEAATRIRRELAARGWSLRS” reads “soluble”; that for “AAAAAAMIVQRVVLNSRPGKNGNPVAENFRMEEVYLPDNINEGQVQVRTLYLSVDPYMRCRMNEDTGTDYITPWQLSQVVDGGGIGIIEESKHTNLTKGDFVTSFYWPWQTKVILDGNSLEKVDPQLVDGHLSYFLGAIGMPGLTSLIGIQEKGHITAGSNKTMVVSGAAGACGSVAGQIGHFLGCSRVVGICGTHEKCILLTSELGFDAAINYKKDNVAEQLRESCPAGVDVYFDNVGGNISDTVISQMNENSHIILCGQISQYNKDVPYPPPLSPAIEAIQKERNITRERFLVLNYKDKFEPGILQLSQWFKEGKLKIKETVINGLENMGAAFQSMMTGGNIGKQIVCISEEISL”, “soluble”.
On to “MGSDKIHHHHHHMRRFFKNNLRNLSQNGETNSVRRCFALADVTVVINGRTLTVPDNLTVIEACEKAGIEIPALCHHPRLGESIGACRVCVVEVEGARNLQPACVTKVRDGMVIKTSSDRVKTARKFNLALLLSEHPNDCMTCEANGRCEFQDLIYKYDVEPIFGYGTKEGLVDRSSPAIVRDLSKCIKCQRCVRACSELQGMHIYSMVERGHRTYPGTPFDMPVYETDCIGCGQCAAFCPTGAIVENSAVKVVLEELEKKEKILVVQTAPSVRVAIGEEFGYAPGTISTGQMVAALRRLGFDYVFDTNFGADLTIMEEGSEFLERLEKGDLEDLPMFTSCCPGWVNLVEKVYPELRTRLSSAKSPQGMLSAMVKTYFAEKLGVKPEDIFHVSIMPCTAKKDEALRKQLMVNGVPAVDVVLTTRELGKLIRMKKIPFANLPEEEYDAPLGISTGAAALFGVTGGVMEAALRTAYELKTGKALPKIVFEEVRGLKGVREAEIDLDGKKIRIAVVHGTANVRNLVEKILRREVKYHFVEVMACPGGCIGGGGQPYSRDPEILRKRAEAIYTIDERMTLRKSHENPAIKKLYEEYLEHPLSHKAHELLHTYYEDRSRKKRLAVK”, for which the “soluble on expression in E. coli” value is recorded as “not soluble”.
Turning to “MSESFAELFEESLKTLNLQAGSIITGVIVDIDYQARWVTVHAGLKSEALIPLEQFYNDAGELSINVGDEVHVALDSVEDGFGETKLSREKAKRAECWIVLEAAFAAEEVVKGVINGKVKGGFTVDVNGIRAFLPGSLVDVRPVRDTTHLEGKELEFKVIKLDQKRNNVVVSRRSVLEAENSAEREALLESLQEGQQVKGIVKNLTDYGAFVDLGGVDGLLHITDMAWKRIKHPSEIVNVGDEIDVKVLKYDRERNRVSLGLKQLGEDPWVAIKARYPESTRVTARVTNLTDYGCFAELEEGVEGLVHVSEMDWTNKNIHPSKVVQVGDEVEVMVLDIDEERRRISLGIKQCKSNPWEDFSGQFNKGDKISGTIKSITDFGIFIGLDGGIDGLVHLSDISWNEVGEEAVRRFKKGDELDTVILSVDPERERISLGIKQLESDPFSEYVQENDKGAIVKGVVKEVDAKGAIITLANDIEATLKASEISRDRIEDARNVLKEGEEVEAKIISVDRKSRVIQLSIKSKDVEDEKEAIQSLRDKPAASDIAAGPTTLGDLLRAQMEKQN”, the “soluble on expression in E. coli” value is recorded as “soluble”.
The result for “SSLYRLFQSSKRPFASFSAPLVRFTNSRCVSAVLSRKETAPSSIYGNRVSRVSGFGALDIRSLNFSTKSSQINDAGSIDQTLMQSMELKIKEQLNAESVTVTDMSGDGRHVCINVVSSAFEGQSAVNRQRMVYKAIWEELQNVVHAVDQMTTKTPSEV” reads “soluble”; that for “MTQEYQLRILPEIAANEQRLKEYISKEKGINLRNITATRILKRSIDARQRTIFVNLKVRAYINEMPKEDEFERTIYNNVEGKPQVIVVGAGPGGLFAALRLIELGLRPIIVERGKDVRERKKDLAQISREHTVDPESNYSFGEGGAGAYSDGKLYTRSKKRGNIDKILNVFCQHGASAAILADAHPHIGTDKLPRVIENMRNTIIECGGEVHFQTRMDALIIENNEIKGIETNTGKTFLGPVILATGHSARDVYRWLAANGVTIEAKGIAVGVRLEHPAMLIDQIQYHNKNGRGKYLPAAEYSFVTQAEGRGVYSFCMCPGGFIVPAASGPEQVVVNGMSPSNRGSRWSNSGMVVEIQPEDFISGELKMESGELAAQQNAQLLAINPLLSNSQLSTLKTQLTPLHFQEELERQCWLQGGRRQTAPAQRMLDFTRKKLSFDLPESSYSPGLISSPLHFWMPDFISKRLSLGFQQFGRTSHGFLTNEAVMIGVETRTSSPVRIVRDKETLQHVTVRGLFPCGEGAGYAGGIVSAGVDGERCAEAVANYINHLEHHHHHH”, “not soluble”; that for “MGSDKIHHHHHHMRHTAVLLISCPDQRGLVAAIADFLLAHRANILHADQHQDAELKLFLMRVEWDLAGFNLDLRDFATAFQPIAERFGMTWRLAESSRKPRMAVFVSKFDHCLADLLYRYQSGELHCELPIILSNHEDTRWLADAYRVPYQHMAVTKESKHETEQIQLAILRDQKIDFIVLARYMQVLSGDFIRHFPNRIINIHHSFLPAFHGAKPYHRAFERGVKLIGATAHYVTETLDDGPIIEQDVARISHRDHIDDLIHKGADLEKVVLSRAVKWHLDNRVLVYANKTVVFD”, “not soluble”.
As for “MSGRGKVKSEPMKVVFINTQYVETDARSFKTVVQELTGKNAIVAAGPFDSPSAFDGRCYDGGSKIGEDTRQLHGGGGGGGRMGTTTEFDRLFKEMPHMEELYKLWSEY”, the entry is “soluble”; as for “MIKVDQHYFELIENYRECFNEEQFIARYSDILDKYDYIVGDYGYDQLRLKGFYKDSNKKAEMSKRFSNIQDYIFEYCNFGCPYFVLRHLSKQEVKKLIEEVHPSDVIDDDNKLQDVKIKPTIQDTEHLEHHHHHH”, “not soluble”.
In the case of “MTIQQSVTHQLLIPITFEGKEHTTITLQRPKTKDLQAIDKKEGVEQTIAMIARLSGWPHEAISELDINDLSSIGEILESFIKRRDTSTGKPPQN”, the “soluble on expression in E. coli” value is on record as “soluble”.
Turning to “MGSDKIHHHHHHMPNSYTHYHDENVTDPHLRATGAISVLPLGAHEQHGPHLPFETDTLIAAGIVSRLAAVLPAHLPVSFLPVEPVGYSIEHMDVPGTKTLCYDEAIERWLGIAEAEYEKGVRKFVMLNAHGGNSPLMTIVATEARARFGMLAVATSWTRFGVPADIVKPQDKAVDIHGGDIETSVMLALHPERVVMEKAANFPSRQSDFSQRFSHLRAYGPHAFGWLMSDLNPDGVAGNAAAASAGKGERLISHAVNGLLELLEDVHAFDITLFHNKI”, the “soluble on expression in E. coli” value was “not soluble”.
As for “ALYGNSSGGVINVTSQTGAQPPTVEASSYYGSFGTWHYGMKATGAVGDGSHAGDVDYTVSTNRFTTHGYRDHSGARKNLANARLGVRINDVSKLTLLLNSVDIKANDAGGLTADEWRDNPRQSPRGDQYNTRKNTRQTQAGLRYERQLSAQDDLSVMMYAGERETTQFQSIPRAPQLKPSHAGGVIDLTRHYQGIDTRLTHRGELLVPVTLTAGLDYENMSERRKGYENFVMVNGAPQYGEQGALRRNERNLMWNVDPYLQTQWQLTDKLSLDAGVRYSSVWFDSNDYYITPGNGDDSGDASYHKWLPAGSLKYALTDAWNVYLSAGRGFETPTINELSYRSDNQSGLNFGLKPSTNDTVEIGSKTRIGNGLFTAALFQTNTDNEIVVDSSSGGRTSYKNAGKTRRQGMELGLDQQFGESWRLKAAWTWLDATYRTNVCDDASCNGNRIPGIARNMGYASFGYQPEQGWYAGSDIRYMSDIMANDENTAKAPSWTVVGLTTGYKWSYGRMDMDLFGRIDNLFDREYVGSVIVNESNGRYYEPAPGRNYGIGLNLAWRFE”, the entry is “not soluble”.
The result for “MTEYGGGEVYLLDLDSVVDGSALRMISSGGLRGRVLIHSALVDYLYSEAKRGRSAGYAGLAELSRLMDAGVGDVEIVVVEDDARVQPRDEGELKSVLRRYALRVGATLVTSDPVQARAARALGVSVLFTGRSRTGRIRIEE” reads “not soluble”; that for “MSLIISELRHEHALRDLLRAAGMSRSTWYYNMNALKQGDRYAGLKENIRKIYHYHKGRYGYRRITLALRKQGLRINHKTVQRLMAELSLRSVIRAKKYRAWKGRTGEAAPNILSRNFGASKANEKWVTDVTEFPVQGKKLYLSSVLDLFNREVIAYSLSERPVMEMVNTMLDGAFPKLRPGDAPLLHSDQGWHYRMRSYQERLKAHGMTQSMSRKGNCLDNAVMENFFGTLKSECFYLREFRSVSALRKAVEDYIHYYNNERISLKLKGLSPVEYRTQALRAAEGHHHHHH”, “not soluble”.
Consider “MAHHHHHHMSRCGRKLDMSSGYWLPRRLLLVRHGESEANVDRALYSKVPDWKIPLTARGREQAFECGRRLRKIIKNEKLYVYYSPYTRTRQTLTEVRKSLLPSQVQGEREDERLREQEIGNFQPLDKMDEMWAERSEFGRSYYRFPDGESSVDVGDRVSKFFDSLFRERVELNYLSARKQMITGSSNDVGPASFTVPDDDDHNVVIISHGLLIRLFVGRWYSAPMEVFETMKNPPNCGIVVLERREAGRLVMTDTSKKLFGSDPLLEMMKFDGKDNVQLFRHLFAEGGYSFSAGEGTDR”, for which the “soluble on expression in E. coli” value was “soluble”.
As for “MSASAPAAEGEGTPTQPASEKEPEMPGPREESEEEEDEDDEEEEEEEKEKSLIVEGKREKKKVERLTMQVSSLQREPFTIAQGKGQKLCEIERIHFFLSKKKTDELRNLHKLLYNRPGTVSSLKKNVGQFSGFPFEKGSVQYKKKEEMLKKFRNAMLKSICEVLDLERSGVNSELVKRILNFLMHPKPSGKPLPKSKKTCSKGSKKERNSSGMARKAKRTKCPEILSDESSSDEDEKKNKEESSDDEDKESEEEPPKKTAKREKPKQKATSKSKKSVKSANVKKADSSTTKKNQNSSKKESESEDSSDDEPLIKKLKKPPTDEELKETIKKLLASANLEEVTMKQICKKVYENYPTYDLTERKDFIKTTVKELIS”, the entry is “soluble”.
